According to the supplement of paper PMC9732359:
± gives the uncertainty stated by the source.

Assay: protein stability index of a GFP-peptide fusion (yeast GPS) (PSI 1-4); higher = more stable; sorted into four equal gates, so the index is relative within each strain
How it was run: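 Each library plasmid carries Cherry plus GFP with a tiled 17-residue yeast protein peptide fused downstream, and the pooled library was carried in yeast. Mid-log cultures in leucine-free medium were sorted into four equal gates by GFP/Cherry ratio. Reads from Illumina sequencing of PCR-amplified plasmids from each gate were assigned to strains by barcodes. Per peptide, the protein stability index was computed as the summed products of gate read frequency and gate number.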

Sequence	protein stability index (doa10∆)	protein stability index (pdr5∆)	protein stability index (san1∆)	protein stability index (ubr1∆)
VLIFFQMTQIMDIMEDF [SNF2]	1.67 ± 0.083	1.52 ± 0.085	2.18 ± 0.13	2.42 ± 0.091
NNYNSRIQLMNDFTTKL [MED1]	2.89 ± 0.075	2.85 ± 0.075	2.98 ± 0.058	3.08 ± 0.059
YDPQRDKRFSGSLKLPN [RPL1A]	3.09 ± 0.065	3.33 ± 0.068	3.02 ± 0.052	3.08 ± 0.048
PDSCNMQEKAAHIAKNL [YCS4]	2.15 ± 0.15	1.55 ± 0.2		1.47 ± 0.093
NAEKYFNNGDDDDYGDE [RPC31]	3.18 ± 0.099	2.67 ± 0.13	3.07 ± 0.066	3.16 ± 0.073
KDIVNISIPKTCDEIQN [REC8]	2.81 ± 0.067	2.74 ± 0.056	2.54 ± 0.05	2.84 ± 0.042
NSDDCMMEEIINVVIKA [ECM29]	3.31 ± 0.14	3.67 ± 0.18	3.14 ± 0.11	2.97 ± 0.11
FSPVISQSLTSILVIVQ [SWI1]	1.43 ± 0.048	1.66 ± 0.05	1.33 ± 0.076	1.33 ± 0.04
KGTVFQFEIPISDDDDS [POP4]	3.3 ± 0.17	2.47 ± 0.15	2.29 ± 0.15	3.13 ± 0.042
PAWFNNPRKRAIPNSII [YMR153W/NUP53]	2.62 ± 0.084	2.94 ± 0.083	3.21 ± 0.079	3.25 ± 0.084
LKHTDYWYEQDSAKEWP [RPB3]	3.18 ± 0.15	3.31 ± 0.13	2.36 ± 0.21	
PTAKDVEVIKQLSLDAS [GAL11]	3.08 ± 0.13	2 ± 0.07	1.82 ± 0.1	2.28 ± 0.073
LRQLLKERYTVEDELTE [RRI1]	3.04 ± 0.097	2.71 ± 0.15	3.33 ± 0.076	3.51 ± 0.084
ENTPEPDLPALEASYSK [SMC4]	2.36 ± 0.12	2.61 ± 0.091	3.18 ± 0.068	2.99 ± 0.12
SQLGGNKTVNEAAKPSL [YJL041W/NSP1]	3.36 ± 0.11	3.09 ± 0.079	2.32 ± 0.17	3.26 ± 0.07
VLQDLRLGSKKLVEIIW [YJL039C/NUP192]	3.25 ± 0.1	3.09 ± 0.16	3.15 ± 0.068	3.39 ± 0.14
HEFTLSFTYELKQHNQN [BRR2]	1.98 ± 0.074	1.97 ± 0.054	2.4 ± 0.08	2.43 ± 0.073
FAKEKLTKKEKKEANLF [RPL6A]	3.02 ± 0.072	3.08 ± 0.08	3.19 ± 0.073	3.14 ± 0.05
EDEENSDVLLFQLPTTC [RGR1]	2.63 ± 0.044	2.27 ± 0.035	2.63 ± 0.041	2.35 ± 0.024
GIHILLYSGLIIDEIIT [RPC82]	1.15 ± 0.094	1.41 ± 0.25		1.21 ± 0.082
FSNKYLELCKLASNNLE [RRI2]	1.95 ± 0.054	2.1 ± 0.039	2.02 ± 0.068	2.02 ± 0.043
NYGEKEERKRWAMQGIS [PCI8]	2.92 ± 0.14	2.52 ± 0.24		
SVNIAFAISMGYLFKVS [ECM29]	2.21 ± 0.14	2.84 ± 0.13	2.83 ± 0.093	3.22 ± 0.13
VITNLFSAIPFVGNDIV [COB]	3.14 ± 0.05	3.12 ± 0.053	3.14 ± 0.034	3.13 ± 0.036
SAILLSETDKRQFLHEL [RPO31]	2.6 ± 0.069	2.49 ± 0.051	2.88 ± 0.087	2.63 ± 0.052
KSFANHTEDEQIEKKKI [SIR4]	2.96 ± 0.14	2.28 ± 0.087	2.66 ± 0.096	2.13 ± 0.048
